Laboratory results published in US20210206856A1 (PANDION OPERATIONS, published 2021).
Like-named read-outs stand apart in the source and are kept apart here.

Assays:
Assay in all cases: cell binding
[1] = target: T1, human MAdCAM expressed on cells (human, UniProt Q13477 19-382)
T1 construct: whole, on cells; also called MADCAM1
T1 sequence (looked up): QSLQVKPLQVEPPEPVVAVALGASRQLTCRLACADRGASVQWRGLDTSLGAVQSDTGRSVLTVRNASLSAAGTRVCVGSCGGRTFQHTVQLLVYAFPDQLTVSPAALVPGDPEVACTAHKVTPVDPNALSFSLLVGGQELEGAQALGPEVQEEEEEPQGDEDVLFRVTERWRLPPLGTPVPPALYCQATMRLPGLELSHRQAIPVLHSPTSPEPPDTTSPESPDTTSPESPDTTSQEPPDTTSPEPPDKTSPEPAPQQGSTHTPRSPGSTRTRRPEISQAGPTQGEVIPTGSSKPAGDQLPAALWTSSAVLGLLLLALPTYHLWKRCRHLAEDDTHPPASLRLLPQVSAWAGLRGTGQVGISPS

[2] = target: T2, mouse MAdCAM expressed on cells (mouse, UniProt Q61826 22-405)
T2 construct: whole, on cells
T2 sequence (looked up): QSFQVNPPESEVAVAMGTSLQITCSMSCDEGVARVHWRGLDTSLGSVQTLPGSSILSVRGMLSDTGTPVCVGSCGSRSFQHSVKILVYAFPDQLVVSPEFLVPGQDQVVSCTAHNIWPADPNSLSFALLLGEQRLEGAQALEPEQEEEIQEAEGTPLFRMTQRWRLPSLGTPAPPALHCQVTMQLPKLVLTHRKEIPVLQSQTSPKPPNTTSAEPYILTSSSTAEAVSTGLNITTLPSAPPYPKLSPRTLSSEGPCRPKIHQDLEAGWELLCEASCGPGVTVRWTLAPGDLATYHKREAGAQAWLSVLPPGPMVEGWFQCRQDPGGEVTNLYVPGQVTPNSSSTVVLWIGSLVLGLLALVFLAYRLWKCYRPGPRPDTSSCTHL

[3] = target: T1, human MAdCAM expressed on cells; remark: listed apart in the source
[4] = target: T2, mouse MAdCAM expressed on cells; remark: listed apart in the source

B1: MAdCAM Antibody Table 1 Clone 15 (scFv)
scFv: QVQLVQSGAEVKKPGSSVKVSCKASGYTFTNYYMHWVRQAPGQGLEWMGGIIPIVDRVKYAQKFQGRVTITADESTSTAYMELSSLRSEDTAVYYCAKGRYTVNYYYGMDVWGQGTTVTVSSGGGGSGGGGSGGGGSGGGGSDIQMTQSPSSLSASVGDRVTITCQANQDISNYLNWYQQKPGKAPKLLIYRASKLEAGVPSRFSGSGSGTDFTLTISSLQPEDFATYYCQQSSEIPYSFGQGTKLEIK
**Q.** Does B1 bind [1]?
**A.** Result: binds

**Q.** Does B1 bind [2]?
**A.** Result: no binding

B2: MAdCAM Antibody Table 1 Clone 17 (scFv)
scFv: EVQLLESGGGLVQPGGSLRLSCAASGFTFSDSAMHWVRQAPGKGLEWVSAISGSGSTIYYADSVKGRFTISRDNSKNTLYLQMNSLRAEDTAVYYCVSDIAVAGHWYFDLWGRGTLVTVSSGGGGSGGGGSGGGGSGGGGSDIQMTQSPSSLSASVGDRVTITCRASQSISTFLNWYQQKPGKAPKLLIYAASRLEGGVPSRFSGSGSGTDFTLTISSLQPEDFATYYCQQANSFPLTFGPGTKVDIK
**Q.** Which results are given for B2?
**A.** binding result [1]: binds; binding result [2]: no binding

B3: MAdCAM Antibody Table 1 Clone 10 (scFv)
scFv: QVQLVQSGAEVKKPGASVKVSCKASGYTLTTWYMYWVRQAPGQGLEWMGWINPNRGATNYAQKFQGRVTMTRDTSTSTVYMELSSLRSEDTAVYYCAKGDLWGAMDVWGQGTLVTVSSGGGGSGGGGSGGGGSGGGGSDIQMTQSPSSLSASVGDRVTITCRASDNIGSWLAWYQQKPGKAPKLLIYAASSLQSGVPSRFSGSGSGTDFTLTISSLQPEDFATYYCQQGYSTPPTFGQGTKVEIK
**Q.** Does B3 bind [1]?
**A.** Result: binds

**Q.** Does B3 bind [2]?
**A.** Result: no binding

B4: MAdCAM Antibody Table 1 Clone 30 (scFv)
scFv: QVQLVQSGAEVKKPGASVKVSCKASGYTLTTWYMYWVRQAPGQGLEWMGWINPNRGATNYAQKFQGRVTMTRDTSTSTVYMELSSLRSEDTAVYYCAKGDLWGAMDVWGQGTLVTVSSGGGGSGGGGSGGGGSGGGGSDIQMTQSPSSLSASVGDRVTITCRASDNIGSWLAWYQQKPGKAPKLLIYAASSLQSGVPSRFSGSGSGTDFTLTISSLQPEDFATYYCQQGYSTPPTFGQGTKVEIK
**Q.** Does B4 bind [2]?
**A.** Result: no binding

B5: MAdCAM Antibody Table 1 Clone 25 (scFv)
scFv: QVQLVQSGAEVKKPGASVKVSCKASGYTLTTWYMYWVRQAPGQGLEWMGWINPNRGATNYAQKFQGRVTMTRDTSTSTVYMELSSLRSEDTAVYYCAKGDLWGAMDVWGQGTLVTVSSGGGGSGGGGSGGGGSGGGGSDIQMTQSPSSLSASVGDRVTITCRASDNIGSWLAWYQQKPGKAPKLLIYAASSLQSGVPSRFSGSGSGTDFTLTISSLQPEDFATYYCQQGYSTPPTFGQGTKVEIK
**Q.** Does B5 bind [2]?
**A.** Result: no binding

B6: MAdCAM Antibody Table 1 Clone 26 (scFv)
scFv: QVQLVQSGAEVKKPGASVKVSCKASGYTLTTWYMYWVRQAPGQGLEWMGWINPNRGATNYAQKFQGRVTMTRDTSTSTVYMELSSLRSEDTAVYYCAKGDLWGAMDVWGQGTTVTVSSGGGGSGGGGSGGGGSGGGGSDIQMTQSPSSLSASVGDRVTITCRASDNIGSWLAWYQQKPGKAPKLLIYAASSLQSGVPSRFSGSGSGTDFTLTISSLQPEDFATYYCQQGYSTPPTFGQGTKVEIK
**Q.** What does the source list for B6?
**A.** binding result [1]: binds; binding result [2]: no binding

B7: MAdCAM Antibody Table 1 Clone 16 (scFv)
scFv: EVQLLESGGGLVQPGGSLRLSCAASGFTFEDYAMHWVRQAPGKGLEWVSYLNSDGGSTSYADSVKGRFTISRDNSKNTLYLQMNSLRAEDTAVYYCAKDYCTNGVCAFDYWGQGTLVTVSSGGGGSGGGGSGGGGSGGGGSDIQMTQSPSSLSASVGDRVTITCRASQSISTYLNWYQQKPGKAPKLLIYDASNLETGVPSRFSGSGSGTDFTLTISSLQPEDFATYYCQQSYTIPITFGQGTRLEIK
**Q.** Does B7 bind [1]?
**A.** Result: binds

**Q.** Does B7 bind [2]?
**A.** Result: no binding

B8: MAdCAM Antibody Table 1 Clone 8 (scFv)
scFv: EVQLLESGGGLVQPGGSLRLSCAASGFMFGDYAMHWVRQAPGKGLEWVSAISGSGGSTYYADSVKGRFTISRDNSKNTLYLQMNSLRAEDTAVYYCAKDLVVAGIWYFDLWGRGTLVTVSSGGGGSGGGGSGGGGSGGGGSDIQMTQSPSSLSASVGDRVTITCRASQGISNNLNWYQQKPGKAPKLLIYDASSLESGVPSRFSGSGSGTDFTLTISSLQPEDFATYYCQQTHSFPSTFGQGTKLEIK
**Q.** Does B8 bind [2]?
**A.** Result: no binding

B9: MAdCAM Antibody Table 1 Clone 12 (scFv)
scFv: QVQLVQSGAEVKKPGASVKVSCKASGYTFTGYYMHWVRQAPGQGLEWMGWIGPNSGDTNYAQKFQGRVTMTRDTSTSTVYMELSSLRSEDTAVYYCARDLDHNWYFDLWGRGTLVTVSSGGGGSGGGGSGGGGSGGGGSDIVMTQSPLSLPVTPGEPASISCRSSQSLLHSNGYNYLDWYLQKPGQSPQLLIYSSSNRAPGVPDRFSGSGSGTDFTLKISRVEAEDVGVYYCMQALHIPLTFGGGTKVEIK
**Q.** Does B9 bind [1]?
**A.** Result: binds

**Q.** Does B9 bind [2]?
**A.** Result: no binding

B10: MAdCAM Antibody Table 2 Clone 83 (antibody, human IgG1, V domains shown)
VH: EVQLLESGGGLVQPGGSLRLSCAASGFTFSSYWMHWVRQAPGKGLEWVAAISYDGKYKDYEDSVKGRFTISRDNSKNTLYLQMNSLRAEDTAVYYCARENKQWLASFDYWGQGTLVTVSS
VL: DIQMTQSPSSLSASVGDRVTITCQASQDISNFVNWYQQKPGKAPKLLIYAANLRSGVPSRFSGSGSGTDFTLTISSLQPEDFATYYCQQANSFPVTFGPGTKVDIK
**Q.** What does the source list for B10?
**A.** binding result [3]: binds; binding result [4]: binds

B11: MAdCAM Antibody Table 1 Clone 14 (scFv)
scFv: QVQLVQSGAEVKKPGSSVKVSCKASGYTFTDYHIHWVRQAPGQGLEWMGGIVPRSGSTTYAQKFQGRVTITADESTSTAYMELSSLRSEDTAVYYCAKDESSGWYYFDYWGQGTLVTVSSGGGGSGGGGSGGGGSGGGGSDIVMTQSPLSLPVTPGEPASISCRSSQSLLHSNGYNYLDWYLQKPGQSPQLLIYSAYNRASGVPDRFSGSGSGTDFTLKISRVEAEDVGVYYCMQALQTPLTFGQGTKVEIK
**Q.** Does B11 bind [1]?
**A.** Result: binds

**Q.** Does B11 bind [2]?
**A.** Result: no binding

B12: MAdCAM Antibody Table 2 Clone 84 (antibody, human IgG1, V domains shown)
VH: QVQLVQSGAEVKKPGASVKVSCKASGGTFSSSAISWVRQAPGQGLEWMGWISAYNGYTNYAQKFQGRVTMTRDTSTSTVYMELSSLRSEDTAVYYCASRVHSGGSYPDDYWGQGTLVTVSS
VL: DIQMTQSPSSLSASVGDRVTITCQASEHIYNYLNWYQQKPGKAPKLLIYAASSLQSGVPSRFSGSGSGTDFTLTISSLQPEDFATYYCQQTDSIPITFGQGTKVEIK
**Q.** What does the source list for B12?
**A.** binding result [3]: binds; binding result [4]: binds

B13: MAdCAM Antibody Table 1 Clone 1 (scFv)
scFv: EVQLLESGGGLVQPGGSLRLSCAASGFTFSSYGMHWVRQAPGKGLEWVAVISDDGSDKYYADSVKGRFTISRDNSKNTLYLQMNSLRAEDTAVYYCTTSKYYYYYGMDVWGQGTTVTVSSGGGGSGGGGSGGGGSGGGGSDIQMTQSPSSLSASVGDRVTITCQASQDISKSLNWYQQKPGKAPKLLIYAASSLQSGVPSRFSGSGSGTDFTLTISSLQPEDFATYYCQQGYSTPLTFGGGTKVEIK
**Q.** Does B13 bind [1]?
**A.** Result: binds

B14: MAdCAM Antibody Table 1 Clone 13 (scFv)
scFv: EVQLLESGGGLVQPGGSLRLSCAASGFTFDDYAMHWVRQAPGKGLEWVSYIDASGTTIYYADSVKGRFTISRDNSKNTLYLQMNSLRAEDTAVYYCAKDQAAAGYWYFDLWGRGTLVTVSSGGGGSGGGGSGGGGSGGGGSDIQMTQSPSSLSASVGDRVTITCQASQDISNYLNWYQQKPGKAPKLLIYKASTLESGVPSRFSGSGSGTDFTLTISSLQPEDFATYYCQQSYSTPITFGQGTRLEIK
**Q.** Does B14 bind [1]?
**A.** Result: binds

**Q.** Does B14 bind [2]?
**A.** Result: no binding

B15: MAdCAM Antibody Table 1 Clone 21 (scFv)
scFv: EVQLLESGGGLVQPGGSLRLSCAASGFTFSNAWMSWVRQAPGKGLEWVSTIVGNGGATYYADSVKGRFTISRDNSKNTLYLQMNSLRAEDTAVYYCARDNPLRWQGMDVWGQGTLVTVSSGGGGSGGGGSGGGGSGGGGSDIQMTQSPSSLSASVGDRVTITCRASQDISNYLNWYQQKPGKAPKLLIYAASSLQSGVPSRFSGSGSGTDFTLTISSLQPEDFATYYCQQSYSIPPTFGPGTKVDIK
**Q.** Does B15 bind [1]?
**A.** Result: binds

**Q.** Does B15 bind [2]?
**A.** Result: no binding

B16: MAdCAM Antibody Table 2 Clone 82 (antibody, human IgG1, V domains shown)
VH: QVQLVQSGAEVKKPGASVKVSCKASGYTFTRHWIHWVRQAPGQGLEWMGWINVKTGGAGYAQKFQGRVTMTRDTSTSTVYMELSSLRSEDTAVYYCARESSGWYGTDVWGQGTTVTVSS
VL: DIQMTQSPSSLSASVGDRATITCRASQSISNYLAWYQQKPGKAPKLLIYAASSLQSGVPSRFSGSGSGTDFTLTISSLQPEDFATYYCQQSNSFPLTFGGGTKVEIK
**Q.** Does B16 bind [3]?
**A.** Result: binds

**Q.** Does B16 bind [4]?
**A.** Result: binds

B17: MAdCAM Antibody Table 2 Clone 81 (antibody, human IgG1, V domains shown)
VH: EVQLLESGGGLVKPGGSLRLSCAASGFAFSSHWMHWVRQAPGKGLEWVAGTSGSGESRDYADFVKGRFTISRDDSKNTLYLQMNSLKTEDTAVYYCARETYYYYYMDVWGKGTTVTVSS
VL: DIQMTQSPSSLSASVGDRVTITCRASQGISNYLAWYQQKPGKAPKLLIYDAANLEGGVPSRFSGSGSGTDFTLTISSLQPEDFATYYCQQSDIFPPTFGQGTKVEIK
**Q.** Which results are given for B17?
**A.** binding result [3]: binds; binding result [4]: binds
